Consider seven molecules from paper PMC6175577 (2018).

What is called Kd is the equilibrium constant for the complex coming apart.

Common to all, as to test: FP
Assay [1] addresses T1, TOPBP1-BRCT0,1,2 segment, wild type (recombinant, fluorescence polarisation) ( (human and chicken TOPBP1 …)).
T1 chain: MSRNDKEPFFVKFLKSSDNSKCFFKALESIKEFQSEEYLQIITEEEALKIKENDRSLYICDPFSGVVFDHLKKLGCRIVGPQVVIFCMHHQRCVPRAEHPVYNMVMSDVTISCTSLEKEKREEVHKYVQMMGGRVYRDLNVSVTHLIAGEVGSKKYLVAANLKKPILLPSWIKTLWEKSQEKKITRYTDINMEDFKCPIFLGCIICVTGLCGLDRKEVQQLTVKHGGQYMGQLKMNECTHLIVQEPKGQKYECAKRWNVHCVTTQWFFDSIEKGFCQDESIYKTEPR

Assay [2] has as its target T2, TOPBP1-BRCT0,1,2 K250E (BRCT2 phosphate-binding site mutant) ( (human and chicken TOPBP1 …)).
T2 chain: T1 chain with K250E

Assay [3] addresses T3, Rad4-BRCT1,2 segment, wild type (recombinant, fluorescence polarisation) (S. pombe, UniProt P32372 1-186).
T3 chain: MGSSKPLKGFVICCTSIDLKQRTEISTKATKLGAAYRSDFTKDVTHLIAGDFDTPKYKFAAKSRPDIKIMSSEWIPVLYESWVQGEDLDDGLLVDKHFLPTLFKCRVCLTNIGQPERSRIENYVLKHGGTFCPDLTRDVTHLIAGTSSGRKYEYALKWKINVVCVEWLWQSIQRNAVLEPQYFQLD

Assay [4] addresses T4, S. pombe Nbs1 (S. pombe, UniProt O43070 1-613).
T4 chain: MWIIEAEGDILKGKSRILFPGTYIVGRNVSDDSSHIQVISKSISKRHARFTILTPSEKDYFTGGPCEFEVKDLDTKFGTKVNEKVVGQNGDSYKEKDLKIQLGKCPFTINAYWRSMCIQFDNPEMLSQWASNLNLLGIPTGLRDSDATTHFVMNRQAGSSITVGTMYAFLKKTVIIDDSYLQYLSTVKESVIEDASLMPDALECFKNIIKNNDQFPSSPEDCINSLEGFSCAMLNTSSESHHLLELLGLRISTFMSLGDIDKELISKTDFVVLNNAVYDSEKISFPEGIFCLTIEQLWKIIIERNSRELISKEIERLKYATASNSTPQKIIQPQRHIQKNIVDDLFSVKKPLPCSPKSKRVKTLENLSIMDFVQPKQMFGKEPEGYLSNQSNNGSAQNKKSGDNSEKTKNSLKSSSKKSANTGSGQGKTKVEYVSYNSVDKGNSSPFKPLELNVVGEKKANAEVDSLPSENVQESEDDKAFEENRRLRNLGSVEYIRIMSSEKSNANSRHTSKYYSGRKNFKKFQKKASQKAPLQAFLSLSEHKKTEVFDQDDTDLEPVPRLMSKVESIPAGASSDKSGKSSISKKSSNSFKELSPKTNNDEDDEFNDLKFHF

Assay [5] deals with T5, TOPBP1-BRCT4,5 segment ( (human and chicken TOPBP1 …)).
T5 chain: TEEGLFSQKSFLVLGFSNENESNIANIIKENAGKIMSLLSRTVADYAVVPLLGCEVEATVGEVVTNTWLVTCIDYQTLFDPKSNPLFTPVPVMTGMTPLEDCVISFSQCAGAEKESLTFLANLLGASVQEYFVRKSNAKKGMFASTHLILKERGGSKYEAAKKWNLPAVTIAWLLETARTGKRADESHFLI

The target in assay [6] is T1, TOPBP1-BRCT0,1,2 segment, wild type ….
Assay [7] concerns the target T6, TOPBP1-BRCT7,8 ( (human and chicken TOPBP1 …)).
T6 chain: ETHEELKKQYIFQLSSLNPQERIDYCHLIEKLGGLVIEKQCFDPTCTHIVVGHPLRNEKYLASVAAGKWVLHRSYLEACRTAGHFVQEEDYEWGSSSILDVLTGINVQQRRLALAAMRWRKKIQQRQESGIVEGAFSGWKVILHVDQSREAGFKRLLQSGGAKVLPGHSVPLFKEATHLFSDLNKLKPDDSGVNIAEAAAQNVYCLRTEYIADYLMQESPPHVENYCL

Positions count from the first letter of the chain named. Where two headings read alike, the source gives them in different places. Where no end group is shown, it is not given here. [ ]: non-standard residue; d: D form. pT = C[C@@H](OP(=O)(O)O)[C@H](N)C(=O)O; pS = N[C@@H](COP(=O)(O)O)C(=O)O Bounds are passed on as bounds.

For the molecule fluorescein-GYGGPVLVKD[pT]PEDKYGI [RHNO1 pT202 fluorescein-labelled phosphopeptide], the dissociation constant (Kd) in assay [1] and in assay [2] was below 200 nM throughout. As for fluorescein-GYGGVMTVPN[pT]PQKPNLQ (also: phosphothreonine at 113 (T7 or T11)) [Mdb1 pT113 fluorescein-labelled phosphopeptide], the dissociation constant Kd in assay [3] was 1310 nM. As to fluorescein-GYGVEGDHS[pS]D[pT]EEEVVS [Mdb1 pS216, pT218 fluorescein-labelled phosphopeptide (SDT site)], binding in assay [4] was characterised by a dissociation constant (Kd) of 820 nM. The molecule fluorescein-GYGDTDFVPP[pS]PEEIISA (also: phosphoserine at 304 (S11 or S17)) [BLM pS304 fluorescein-labelled phosphopeptide] registered an equilibrium dissociation constant (Kd) in assay [5] of 3460 nM. As to fluorescein-GYGDIGVVEE[pS]PEKGDEI [Treslin pS1001 fluorescein-labelled phosphopeptide], in assay [6], the Kd was 600 nM. Regarding fluorescein-GYGEDESIYF[pT]PELYDPE [FANCJ pT1133 fluorescein-labelled phosphopeptide], in assay [7], the equilibrium dissociation constant (Kd) was found to be 140 nM.

On to fluorescein-GYGLTKSVAE[pT]PVHKQIS (also: phosphothreonine at 969 (T5 or T11)) [Treslin pT969 fluorescein-labelled phosphopeptide], for which the dissociation constant Kd in assay [6] turned out to be 940 nM.
